B2: human NKG2D (receptor)
chain: IPLTESYCGPCPKNWICYKNNCYQFFDESKNWYESQASCMSQNASLLKVYSKEDQDLLKLVKSYHWMGLVHIPTNGSWQWEDGSILSPNLLTIIEMQKGDCALYASSFKGYIENCSTPNTYICMQRTV

The test “human NKG2D” addresses B2. The test is described as follows: printed as 'binding coefficients'; method not stated.
In test [1] the target is OMCP (WT OMCPBR, cowpox virus Brighton Red) (cowpox virus (Brighton Red strain)). The test is described as above.

B1: KYK-1 antibody (antibody, V domains shown)
VH: EVQLVESGGGVVQPGGSLRLSCAASGFTFSSYGMHWVRQAPGKGLEWVAFIRYDGSNKYYADSVKGRFTISRDNSKNTLYLQMNSLRAEDTAVYYCAKDRFGYYLDYWGQGTLVTVSS
VL: QPVLTQPSSVSVAPGETARIPCGGDDIETKSVHWYQQKPGQAPVLVIYDDDDRPSGIPERFFGSNSGNTATLSISRVEAGDEADYYCQVWDDNNDEWVFGGGTQLTVL
Broadly, the Kd is the free concentration of one partner at which half of the binding sites on the other are occupied at equilibrium, for simple one-to-one binding. Low values mean a tighter complex, high ones a looser complex. For the molecule B1, in the test with human NKG2D, the affinity, expressed as Kd, was 27 nM.
B2: in test [1], the affinity, expressed as Kd, was 0.1 nM.

B3: KYK-2 antibody (antibody, V domains shown)
VH: QVQLVESGGGLVKPGGSLRLSCAASGFTFSSYGMHWVRQAPGKGLEWVAFIRYDGSNKYYADSVKGRFTISRDNSKNTLYLQMNSLRAEDTAVYYCAKDRGLGDGTYFDYWGQGTTVTVSS
VL: QSALTQPASVSGSPGQSITISCSGSSSNIGNNAVNWYQQLPGKAPKLLIYYDDLLPSGVSDRFSGSKSGTSAFLAISGLQSEDEADYYCAAWDDSLNGPVFGGGTKLTVL
In the case of B3, in the test with human NKG2D, binding was characterised by a dissociation constant (Kd) of 6 nM.

These data come from patent publication US20190119345A1 (published 2019).
